Experimental data reported in publication PMC9388160, “A multidomain connector links the outer membrane and cell wall in phylogenetically deep-branching bacteria” (Proceedings of the National Academy of Sciences of the …, 2022).

B1: SlpA (Deinococcus radiodurans outer membrane protein, UniProtKB Q9RRB6) (natural protein, D. radiodurans, UniProt Q9RRB6 23-1167, looked up)
chain: APVSAPQVPALTDVPAGHWAKDAIDRLVSRGVILGYPDGTFRGTQNLTRYEAAIIIARLLDQMRDGETPAGMTAEDMTALQNAIQELAADLAALGVRVSDLEANAVSKDDFARLEARIEEVAAAGGEQGATEALQGQIDDLTARVDEYDALRADVDDNASSIAALNDLTVLLNQDILDLQDRVSAVEAAQADFVQRSDFDALGGRVTTVETRVETVNNSLTGRIAALERNAFSVKPSLTIGYSVSRTSRNFDVDRLFPLNADGTVANNAFTSGGIDTDTGAQRRDFGDFGNASDPVVAGAAGLYGFADGVSYTVYFTDGSTATFDGLNPADYKVPTGKVIDTTKGRNGFGFNNLARYKEGSTDIGISLGFDTSGQFSQVTSGTGGSLFSTAGRLQVNQIDLNFGLVTGLPSDAYVDTNGNGKKDDGEATGRGTYLGSGGTAAILRDPAGNVYRPVFFRFKNATTQFSVGNNPVIVTLGQQQKFYFSDYVFDNNYDGRGDGFTVTVDGSNVPVIGAWKPQIKGVYGSRSGLDGTAEAGYGVYYRGVRAQITPVGTLTAGIHYAQEGRDMFGAAQNTTSTPSDVTTYGADLHGKAFGVELHSEYATSRVRPNTANAAVQTSNAFYARVATRKDNLAFDLNTPAAKFGNDTFGVSLYDLNYRKIDAGYNNVAGISEYGYGSYSRTSAQNIAYNPDTGVTAPFANLDRQAYTDANNDGTSDRNADGTVVATNTKIGQMGFGVKAAANLGPVAIGGYYDTSTGANGDNANRMTEAGGSAKVAYSIFSLRGTYNTLDSNRPQIYRDAAGTQIIGDAKVRRYAVQADVTPGLGLFVGAYYRDVNVNGVRSTTDRGLLGRGYLASSFEPGVGNNAYRTGLRCADNNFGTGTRDIDGVGGVLNPAVNLDQSRTATCFTSYGVEAGHAGDNANALVKDLFFRVGYSRVYVPTTATATTGDFSGSVTYGDARYDRKVGVANVRLAGSFSTTNTQLDSRPAGTRGAVGLIVRTDPLENVPFRPQFNGQVGYYTADNRVAAGNYNANATKYGAGVVLNDFLLPQTKIGVRYDGYMAQNRQYTPFDGDGTQGYFSDANNNRRTNLNGVYVEGAYQDLIFSYGTYTLSQKDLNGVEYGSGINNGQPARGQTFKISYKVNF
notes: SlpA, D. radiodurans, UniProtKB Q9RRB6; wild-type protein purified from the bacterium; The map is well resolved from residue 215 onwards; Native, untagged protein in DDM micelles; it models the periplasmic segment from residue 20; also called SlpA protein complex; SlpA trimer; source: purified from D. radiodurans (ATCC BAA816): lysozyme treatment, DDM extraction, HiTrap-Q, Superose 6 Increase

Legend:
DR_0644 = DR_0644 (uncharacterized protein, UniProt Q9RWM2) (D. radiodurans); assay: cryo-EM structure; single-particle cryo-EM of SlpA purified from D. radiodurans, in 20 mM Hepes/NaOH pH 7.5, 150 mM NaCl, 0.02% DDM; 4.45 mg/mL; C3 symmetry; global resolution 3.25 Å
[1] = target: the molecule itself; assay: as above

| Molecule | stoichiometry N (DR_0644) | stoichiometry N [1] |
| --- | --- | --- |
| DR_0644 (uncharacterized protein, UniProt Q9RWM2) (natural protein) | 3 | – |
| B1 | – | 3 |
